# Where a chain is given by its changes, count along the chain named.
# B1: HMGB1 NLS1/2A (HMGB1-GFP mutant) (other, human, UniProt P09429 1-215, looked up)
# chain: MGKGDPKKPRGKMSSYAFFVQTCREEHKKKHPDAAVNFAEFAKKCAERWKTMAAKEKGKFEDMAKADKARYEREMKTYIPPKGETKKKFKDPNAPKRPPSAFFLFCSEYRPKIKGEHPGLSIGDVAKKLGEMWNNTAADDKQPYEKKAAKLKEKYEKDIAAYRAKGKPDAAKKGVVKAEKAKKKKEEEEDEEDEEDEEEEEDEEDEDEEEDDDDE
# notes: not shown: EGFP of pEGFP-N1 and linker
# B2: HMGB1 NLS1/2E (HMGB1-GFP mutant) (other, human, UniProt P09429 1-215, looked up)
# chain: B1 chain with A35E, A39E, A42E, A46E, A53E, A181E
# notes: as for B1
# B3: HMGB1 NLS1A (HMGB1-GFP mutant) (other, human, UniProt P09429 1-215, looked up)
# chain: B1 chain with A181S
# notes: as for B1
# B4: HMGB1 NLS1E (HMGB1-GFP mutant) (other, human, UniProt P09429 1-215, looked up)
# chain: B1 chain with A35E, A39E, A42E, A46E, A53E, A181S
# notes: as for B1
# B5: HMGB1 NLS2A (HMGB1-GFP mutant) (other, human, UniProt P09429 1-215, looked up)
# chain: B1 chain with A35S, A39S, A42S, A46S, A53S
# notes: as for B1
# B6: HMGB1 NLS2E (HMGB1-GFP mutant) (other, human, UniProt P09429 1-215, looked up)
# chain: B1 chain with A35S, A39S, A42S, A46S, A53S, A181E
# notes: as for B1
# B7: six His-tagged HMGB1 box A (aa 1-87) (other, human, UniProt P09429 1-87, looked up)
# chain: MGKGDPKKPRGKMSSYAFFVQTCREEHKKKHPDASVNFSEFSKKCSERWKTMSAKEKGKFEDMAKADKARYEREMKTYIPPKGETKK
# notes: range 1-87; Includes NLS1 (aa 28-44); Purified from E. coli BL21; also called boxes A (aa 1-87); not shown: 6×His tag and vector-encoded residues of pRSETB (Invitrogen)
# B8: six His-tagged HMGB1 box B (aa 88-162) (other, human, UniProt P09429 88-162, looked up, not shown: small tags and cut ends)
# chain: KFKDPNAPKRPPSAFFLFCSEYRPKIKGEHPGLSIGDVAKKLGEMWNNTAADDKQPYEKKAAKLKEKYEKDIAAY
# notes: range 88-162
# Tests used:
# HMGB1 secretion = assay: Inhibition of HMGB1 secretion by Protein Kinase C inhibitor in LPS-treated RAW 264.7 cells (Western blot of supernatants); assay type: cell-based, Murine; details: 200 ng/mL LPS combined with inhibitor, 16 h, Go 6983 0.1 to 10 μM
# Protocol: RAW 264.7 cells were treated with 200 ng/mL of LPS alone or combined with Gö 6983 (PKC inhibitor) at the indicated concentrations (μM) for 16 h. SB203580 (p38 inhibitor), PD098059 (ERK1/2 inhibitor), Bay 11-7082 (NF-κB inhibitor) were used for comparison. The supernatants were harvested and separated with 12% SDS-PAGE and Western blot was performed to observe the level of HMGB1.
# To analyze the secretion of HMGB1 in the supernatants, culture media were replaced with serum-free OPTI-MEM (Gibco BRL) medium and concentrated with Amicon Centricon filtration (Millipore) after removing cell debris, and Western blot analysis was performed. The cytoplasmic and nuclear fractions from 5×10^6 cells were separated using a digitonin-based method (Bird, C. H. et al, Mol Cell Biol 21:5396-5407 (2001)) to observe the levels of HMGB1 in each fraction. The cells were lysed using 1% Nonidet P-40 buffer containing a protease inhibitor cocktail (Sigma), and the protein concentrations were measured by Bradford assay (Biorad) for the analysis of whole cell lysates (WCLs). The protein samples underwent 12% SDS-PAGE and were transferred to a nitrocellulose membrane. Western blot analysis was performed using rabbit anti-HMGB1 (BD Pharmingen) and HRP-labeled goat anti-rabbit Ig as primary and secondary antibodies, respectively.
# To observe the inhibition of HMGB1 secretion by PKC inhibitor, RAW 264.7 cells were treated with 200 ng/mL of LPS alone or combined with Gö 6983 (Calbiochem), a conventional PKC (α, β, and γ) inhibitor including PKCδ and PKCζ, at the indicated concentrations for 16 h. Other inhibitors of SB203580 (p38 inhibitor, Calbiochem), PD098059 (ERK1/2 inhibitor, Calbiochem), Bay 11-7082 (NF-κB inhibitor, Calbiochem) were included. The supernatants were harvested and separated with 12% SDS-PAGE and Western blot was performed to observe the level of HMGB1.
# [1] = target: six His-tagged wild type HMGB1 (UniProt P09429)
# [2] = target: six His-tagged HMGB1 NLS1/2A, not tagged with GFP (UniProt P09429)
# Flag-tagged KAP-α1 [3] = target: T1, Flag-tagged KAP-α1 (human, UniProt P52294 1-538); assay: co-immunoprecipitation from co-transfected RAW 264.7 cells, Western blot (summed up in Example 7)
# T1 construct: Expressed in co-transfected RAW 264.7 cells; used in co-immunoprecipitation; also called FLAG-KAP-α1; not shown: Flag tag of vector pCMV-Tag2 (Stratagene)
# Protocol: (§1) To observe the binding of KAP protein to each mutant HMGB1 in the cells, Flag-tagged KAP-α1 and each mutant HMGB1-GFP plasmid were co-transfected into RAW 264.7 cells. Cell homogenates of transfected RAW 264.7 cells were harvested and incubated with mouse anti-Flag (M2, Sigma) and mouse anti-GFP (Santa Cruz) at 4° C. overnight. Immune complexes were collected and the membranes were blotted with anti-Flag and anti-GFP, respectively. The reciprocal experiment was also performed. GST was used as a negative control. And to test the direct binding of HMGB1 to KAP-α1, GST pull-down assay was performed as described above.
# (§2) To observe the effect of phosphorylation in both NLS regions of HMGB1 on the binding to KAP-α1 and on the subcellular localization of HMGB1 in the transfected cells, a number of site-directed mutations in six serines of NLS1 and NLS2 were generated using a HMGB1-GFP fusion construct plasmid (FIG. 5A). Serines 35, 39, 42, 46, 53 within or close to NLS1 and serine 181 at NLS2 were alternatively or totally mutated into alanine or glutamic acid. Substitution with alanine and glutamic acid simulated unphosphorylated and a phosphorylated states, respectively. RAW 264.7 cells were co-transfected with a Flag-tagged KAP-α1 plasmid and each mutant HMGB1-GFP plasmid, and immunoprecipitates using anti-GFP (FIG. 5B) or anti-Flag (FIG. 5C) were analyzed with anti-Flag for KAP-α1 or anti-GFP for HMGB1.
# Flag-tagged KAP-α1 [4] = target: T1, Flag-tagged KAP-α1; assay: co-immunoprecipitation from co-transfected RAW 264.7 cells (anti-GFP and anti-Flag), Western blot
# Protocol: as §1, §2
# [5] = target: T2, GST-KAP-α1 fusion protein (human, UniProt P52294 1-538); assay: GST pull-down with GST-KAP-α1 on glutathione-Sepharose beads, anti-His blot
# T2 construct: Produced in E. coli BL21, immobilized on glutathione-Sepharose 4B beads; the primers start at the ATG of the coding region; not shown: glutathione S-transferase (GST) tag encoded by vector pGEX-4T-1 (Pharmacia)
# Protocol: Direct binding of recombinant HMGB1 protein to KAP-α1 was tested to exclude the possibility that other HMGB1-interacting proteins present in cell lysates could have a role in binding. Purified six His-tagged wild type HMGB1 protein and boxes A (aa 1-87) and B (aa 88-162) proteins, which were identified at expected size by Coomassie blue staining (FIG. 4B, left), were purified from E. coli BL21. Same molar amounts of all wild and truncated forms of HMGB1 were added to GST-KAP-α1, and GST pull-down assay was performed.
# T1 sequence (P52294 whole entry): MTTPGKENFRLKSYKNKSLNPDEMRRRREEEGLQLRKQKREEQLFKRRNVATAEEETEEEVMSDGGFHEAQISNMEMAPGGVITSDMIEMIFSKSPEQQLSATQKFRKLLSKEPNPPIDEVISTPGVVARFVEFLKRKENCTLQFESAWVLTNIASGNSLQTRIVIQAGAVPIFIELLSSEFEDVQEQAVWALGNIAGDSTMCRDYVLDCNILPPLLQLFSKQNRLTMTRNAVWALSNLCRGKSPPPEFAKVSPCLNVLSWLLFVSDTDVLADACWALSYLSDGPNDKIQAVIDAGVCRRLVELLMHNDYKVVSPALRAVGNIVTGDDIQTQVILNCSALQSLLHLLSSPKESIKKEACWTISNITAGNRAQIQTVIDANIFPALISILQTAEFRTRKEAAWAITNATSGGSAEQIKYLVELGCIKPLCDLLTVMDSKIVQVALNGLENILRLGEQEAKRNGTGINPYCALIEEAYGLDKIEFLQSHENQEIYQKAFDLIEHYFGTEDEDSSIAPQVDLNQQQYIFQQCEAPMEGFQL
# T2 sequence (P52294 whole entry, the tested form may be a part): as the sequence (P52294 whole entry) above
molecule,measurement,setting,value
COc1cccc(-c2cc(=O)c3ccccc3o2)c1N [PD098059],levels of HMGB1 in the culture supernatants (HMGB1 secretion),HMGB1 secretion,no change of HMGB1 secretion
casein kinase II (CK II) (New England BioLabs),"in vitro protein kinase assay ([γ-32P]ATP, autoradiography)",[1],CK II and cdc2 showed no phosphorylation of HMGB1
protein kinase C (PKC) protein (Upstate),"in vitro protein kinase assay ([γ-32P]ATP, autoradiography)",[1],PKC phosphorylated WT HMGB1
same,"in vitro protein kinase assay ([γ-32P]ATP, autoradiography)",[2],showed little or no phosphorylation compared to the WT HMGB1
Cdc2 kinase (New England BioLabs),"in vitro protein kinase assay ([γ-32P]ATP, autoradiography)",[1],CK II and cdc2 showed no phosphorylation of HMGB1
C[S+]([O-])c1ccc(-c2nc(-c3ccncc3)c(-c3ccc(F)cc3)[nH]2)cc1 (stereo not shown) [SB203580],levels of HMGB1 in the culture supernatants (HMGB1 secretion),HMGB1 secretion,no change of HMGB1 secretion
Cc1ccc(S(=O)(=O)/C=C/C#N)cc1 [Bay 11-7082],levels of HMGB1 in the culture supernatants (HMGB1 secretion),HMGB1 secretion,decreased in a concentration-dependent manner
"COc1ccc2c(c1)c(C1=C(c3c[nH]c4ccccc34)C(=O)NC1=O)cn2CCCN(C)C [Go 6983, 2-[1-(3-dimethylaminopropyl)-5-methoxyindol-3-yl]-3-(1H-indol-3-yl) Maleimide]",levels of HMGB1 in the culture supernatants (HMGB1 secretion),HMGB1 secretion,decreased to undetectable level
same,levels of HMGB1 in the culture supernatants (HMGB1 secretion),HMGB1 secretion; listed as Go6983,the secretion of HMGB1 was inhibited
B1,interaction relative to wild-type,Flag-tagged KAP-α1 [3],≥ 50 % of wild-type
B2,binding result,Flag-tagged KAP-α1 [4],no binding
B3,interaction relative to wild-type,Flag-tagged KAP-α1 [3],≥ 50 % of wild-type
B4,interaction relative to wild-type,Flag-tagged KAP-α1 [3],≥ 50 % of wild-type
same,interaction relative to wild-type,Flag-tagged KAP-α1 [4],~50 % of wild-type
B5,interaction relative to wild-type,Flag-tagged KAP-α1 [3],≥ 50 % of wild-type
B6,interaction relative to wild-type,Flag-tagged KAP-α1 [3],≥ 50 % of wild-type
same,interaction relative to wild-type,Flag-tagged KAP-α1 [4],~50 % of wild-type
B7,binding result,[5],no binding
B8,binding result,[5],no binding

# Source: patent publication US20080103086A1, “METHODS FOR THE TREATMENT OF DISEASES ASSOCIATED WITH THE SECRETION OF HMGB1” (priority 2006, published 2008)
